According to patent US20250101117A1 (Genentech, published 2025):

Target: T1, oncostatin M receptor-beta (OSMRβ) (human, UniProt Q99650 28-979)
T1 sequence (looked up): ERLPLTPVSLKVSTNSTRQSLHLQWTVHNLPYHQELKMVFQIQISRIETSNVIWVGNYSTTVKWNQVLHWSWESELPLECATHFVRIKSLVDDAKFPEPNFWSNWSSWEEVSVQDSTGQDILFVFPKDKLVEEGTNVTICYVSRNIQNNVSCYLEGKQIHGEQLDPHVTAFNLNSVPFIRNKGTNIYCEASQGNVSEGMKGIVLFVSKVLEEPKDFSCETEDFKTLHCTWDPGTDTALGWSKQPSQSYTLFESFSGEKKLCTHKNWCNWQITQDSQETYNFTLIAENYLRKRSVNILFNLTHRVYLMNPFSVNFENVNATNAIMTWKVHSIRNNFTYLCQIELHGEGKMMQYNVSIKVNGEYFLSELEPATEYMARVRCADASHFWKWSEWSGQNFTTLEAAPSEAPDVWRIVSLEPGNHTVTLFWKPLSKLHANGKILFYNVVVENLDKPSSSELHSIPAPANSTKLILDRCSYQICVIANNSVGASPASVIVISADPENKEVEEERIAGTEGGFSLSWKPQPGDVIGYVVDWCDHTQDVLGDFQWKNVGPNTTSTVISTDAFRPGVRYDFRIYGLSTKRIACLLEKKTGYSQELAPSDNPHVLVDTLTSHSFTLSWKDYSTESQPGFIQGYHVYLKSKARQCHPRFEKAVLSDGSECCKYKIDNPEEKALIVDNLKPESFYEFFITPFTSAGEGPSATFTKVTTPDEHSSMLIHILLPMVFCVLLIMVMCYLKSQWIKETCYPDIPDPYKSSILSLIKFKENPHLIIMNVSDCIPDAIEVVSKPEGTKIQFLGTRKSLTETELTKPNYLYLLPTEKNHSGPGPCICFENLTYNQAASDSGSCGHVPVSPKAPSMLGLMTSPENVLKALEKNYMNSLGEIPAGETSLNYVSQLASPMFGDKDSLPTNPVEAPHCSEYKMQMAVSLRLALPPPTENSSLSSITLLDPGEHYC
Assay: cell-based or functional assay

B1: Vixarelimab (antibody, human IgG4 S228P, lambda, N297Q, V domains shown)
VH: QVQLVQSGAEVKKPGASVKVSCKASGYTFTSYEINWVRQATGQGLEWMGWMNPNSGYTGYAQKFQGRVTMTRDTSISTAYMEMSSLRSEDTAVYYCARDIVAANTDYYFYYGMDVWGQGTTVTVSS
VL: QSVLTQPPSASGTPGQRVTISCSGSNSNIGSNTVNWYHQLPGTAPKLLIYNINKRPSGVPDRFSGSKSGSSASLAISGLQSEDEADYYCSTWDDSLDGVVFGGGTKLTVLG
  Mean of IC50, inhibition of OSM-induced pSTAT3; IBD-derived intestinal fibroblasts, [OSM] 1 ng/mL (standard deviation 0.05): 0.14 nM
  Mean of IC50, inhibition of OSM-induced pSTAT3; IBD-derived intestinal fibroblasts, [OSM] 10 ng/mL (standard deviation 0.36): 1.15 nM
  Mean of IC50, inhibition of OSM-induced pSTAT3; normal keratinocytes, [OSM] 10 ng/mL (standard deviation 0.18): 0.36 nM
